Results from US20230357422A1 (published 2023).
Residue numbers refer to the chain shown, from its start.

B1: GITR-his (receptor, human, UniProt Q9Y5U5 26-162, looked up)
chain: QRPTGGPGCGPGRLLLGTGTDARCCRVHTTRCCRDYPGEECCSEWDCMCVQPEFHCGDPCCTTCRHHPCPPGQGVQSQGKFSFGFQCIDCASGTFSGGHEGHCKPWTDCTQFGFLTVFPGNKTHNAVCVPGSPPAEP
notes: 'Human' heads the list '4-1BB-his, GITR-his, OX40-his, CD40-his' and is read as applying to all four; not shown: his tag
B2: OX40-his (receptor, human, UniProt P43489 29-216, looked up)
chain: LHCVGDTYPSNDRCCHECRPGNGMVSRCSRSQNTVCRPCGPGFYNDVVSSKPCKPCTWCNLRSGSERKQLCTATQDTVCRCRAGTQPLDSYKPGVDCAPCPPGHFSPGDNQACKPWTNCTLAGKHTLQPASNSSDAICEDRDPPATQPQETQGPPARPITVQPTEAWPRTSQGPSTRPVEVPGGRAVA
notes: 'Human' heads the list and is read as applying to all four proteins; not shown: his tag
B3: Hu-A-NA-19-1 (Fc fusion)
chain: EVQLVESGGGLVKPGGSLRLSCAASGAIFRINTGAWYRQAPGKQRELVASLTTYGKTTYADFVKGRFTISRDDSKNTLYLQMNSLKTEDTAVYYCHIGPEPRYGYWGQGTLVTVSSTHTCPPCPAPEAAGGPSVFLFPPKPKDTLMISRTPEVTCVVVDVSHEDPEVKFNWYVDGVEVHNAKTKPREEQYNSTYRVVSVLTVLHQDWLNGKEYKCKVSNKALPAPIEKTISKAKGQPREPQVYTLPPSREEMTKNQVSLTCLVKGFYPSDIAVEWESNGQPENNYKTTPPVLDSDGSFFLYSKLTVDKSRWQQGNVFSCSVMHEALHNHYTQKSLSLSPG
notes: also called HZ-A-Na-19-1
B4: Hu-A-NA-19-2 (Fc fusion)
chain: B3 chain with Q44G, R45L
notes: also called HZ-A-Na-19-2
B5: HZ-L-Yr-13&14-16-2 (Fc fusion)
chain: QVQLVESGGGVVQPGRSLRLSCAASGSTFSIVAMGWYRQAPGKGLELVASIITGDGDTNYADSVKGRFTISRDNSKNTMYLQMNSLRAEDTAVYYCYARTGYGSSWLMGHEYDYWGQGTQVTVSSTHTCPPCPAPEAAGGPSVFLFPPKPKDTLMISRTPEVTCVVVDVSHEDPEVKFNWYVDGVEVHNAKTKPREEQYNSTYRVVSVLTVLHQDWLNGKEYKCKVSNKALPAPIEKTISKAKGQPREPQVYTLPPSREEMTKNQVSLTCLVKGFYPSDIAVEWESNGQPENNYKTTPPVLDSDGSFFLYSKLTVDKSRWQQGNVFSCSVMHEALHNHYTQKSLSLSPG
B6: L-Yr-13&14-06 (Fc fusion)
chain: QVQLQESGGGLVEAGGSLRLSCAASGSIFSINVMGWYRQAPGKQRELVAVITSDYSTNYADSVKGRFTISRDNAKNTVYLQMNSLKPEDTAVYHCAATGYGSSPWYWGQGTQVTVSSTHTCPPCPAPEAAGGPSVFLFPPKPKDTLMISRTPEVTCVVVDVSHEDPEVKFNWYVDGVEVHNAKTKPREEQYNSTYRVVSVLTVLHQDWLNGKEYKCKVSNKALPAPIEKTISKAKGQPREPQVYTLPPSREEMTKNQVSLTCLVKGFYPSDIAVEWESNGQPENNYKTTPPVLDSDGSFFLYSKLTVDKSRWQQGNVFSCSVMHEALHNHYTQKSLSLSPG
B7: L-Yr-13&14-03 (Fc fusion)
chain: QVQLQESGGGLVQPGESLRLSCDSGRIFSYNFMGWYRQAPGKQRELVASITWGGTIKYADSVKGRFTISRHDAENTVYLQMNSLKSEDTAVYYCHAATDTGVIYWGQGTQVTVSSTHTCPPCPAPEAAGGPSVFLFPPKPKDTLMISRTPEVTCVVVDVSHEDPEVKFNWYVDGVEVHNAKTKPREEQYNSTYRVVSVLTVLHQDWLNGKEYKCKVSNKALPAPIEKTISKAKGQPREPQVYTLPPSREEMTKNQVSLTCLVKGFYPSDIAVEWESNGQPENNYKTTPPVLDSDGSFFLYSKLTVDKSRWQQGNVFSCSVMHEALHNHYTQKSLSLSPG
B8: L-Yr-13&14-05 (Fc fusion)
chain: QVQLQESGGGLVQAGGSLRLSCAASGRTLSGYVMGWFRQASGKERELVAAISSGGSTYYEDSVKGRFTISRDNAKNTMYLQMNSLKPEDTAVYYCAADPRRLTGLYDYWGQGTQVTVSSTHTCPPCPAPEAAGGPSVFLFPPKPKDTLMISRTPEVTCVVVDVSHEDPEVKFNWYVDGVEVHNAKTKPREEQYNSTYRVVSVLTVLHQDWLNGKEYKCKVSNKALPAPIEKTISKAKGQPREPQVYTLPPSREEMTKNQVSLTCLVKGFYPSDIAVEWESNGQPENNYKTTPPVLDSDGSFFLYSKLTVDKSRWQQGNVFSCSVMHEALHNHYTQKSLSLSPG
B9: A-Ye-23 (Fc fusion)
chain: QVQLQESGGGLVQPGGSLRLSCAASGFSLGLYAIAWFRQAPGKEREWVSCIEKSDSSAYYADSVKGRFTVSRDNAKNTVDLQMNRLSPEDTAVYYCAAPQSDCFHYKENDYWGQGTQVTVSSTHTCPPCPAPEAAGGPSVFLFPPKPKDTLMISRTPEVTCVVVDVSHEDPEVKFNWYVDGVEVHNAKTKPREEQYNSTYRVVSVLTVLHQDWLNGKEYKCKVSNKALPAPIEKTISKAKGQPREPQVYTLPPSREEMTKNQVSLTCLVKGFYPSDIAVEWESNGQPENNYKTTPPVLDSDGSFFLYSKLTVDKSRWQQGNVFSCSVMHEALHNHYTQKSLSLSPG
B10: L-Yr-13&14-01 (Fc fusion)
chain: QVQLQESGGGLVQAGGSLRLSCAASGSFNAMGWWRQAPGKQREFVAIITRDGSTNLADSVKGRFTISSDNAKNTWFLQMNSLKPEDTAVYYCSASDYGSSLYYWGQGTQVTVSSTHTCPPCPAPEAAGGPSVFLFPPKPKDTLMISRTPEVTCVVVDVSHEDPEVKFNWYVDGVEVHNAKTKPREEQYNSTYRVVSVLTVLHQDWLNGKEYKCKVSNKALPAPIEKTISKAKGQPREPQVYTLPPSREEMTKNQVSLTCLVKGFYPSDIAVEWESNGQPENNYKTTPPVLDSDGSFFLYSKLTVDKSRWQQGNVFSCSVMHEALHNHYTQKSLSLSPG

What follows are binders tested against HZ-L-Yr-13&14-16-1 (assay: ELISA on coated his-tagged protein).
Method: Human 4-1BB-his, GITR-his, OX40-his, CD40-his proteins (purchased from ACRO) were dissolved according to the instructions, diluted to 1 μg/ml with ELISA coating solution (purchased from Shanghai Sangon), coated on ELISA plate at 100 allowed to stand overnight at 4° C., and washed for 3 times with PBST, 5% BSA (purchased from Shanghai Sangon) was added at 200 μl/well to block for 1 hour at room temperature. The coating solution was discarded, 4-1BB antibody diluted with 1% BSA was added at 100 200 nM in three replicate wells, and incubated at room temperature for 2 hours. Washing was performed with PBST for 3 times, and goat anti-human IgG-Fc-HRP (purchased from abcam) diluted with 1% BSA was added at 100 μl/well, and incubated at room temperature for 1 hour. Washing was performed 3 times with PBST, ELISA chromogenic solution (purchased from Solarbio) was added at 100 μl/well to react at room temperature for 3 minutes, ELISA stop solution (purchased from Solarbio) was added at 50 and the absorbance value at 450 nm was read.

| binding result | Binder |
| --- | --- |
| no binding (tested: 200 nM) | B1 |
| no binding (tested: 200 nM) | B2 |

These binders were tested against T1, human 4-1BB on CHO cells (human, UniProt Q07011 24-255) (assay: flow cytometry on CHO cells expressing human 4-1BB).
T1 construct: whole, on cells; also called CHO-h4-1BB cells; human 4-1BB CHO-S cells
T1 sequence (Q07011 24-255): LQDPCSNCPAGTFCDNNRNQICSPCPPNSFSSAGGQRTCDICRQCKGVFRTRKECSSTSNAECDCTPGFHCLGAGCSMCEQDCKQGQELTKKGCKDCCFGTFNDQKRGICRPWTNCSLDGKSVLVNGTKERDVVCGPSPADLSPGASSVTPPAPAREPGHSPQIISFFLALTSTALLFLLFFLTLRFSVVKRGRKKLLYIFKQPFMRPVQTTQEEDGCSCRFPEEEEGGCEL
Method: CHO cells overexpressing human 4-1BB (CHO-h4-1BB cells) were generated by transfection of pCHO1.0 vector (purchased from Invitrogen) encoding human 4-1BB cDNA cloned into MCS (multiple cloning site). The cell density of the expanded CHO-h4-1BB cells was adjusted to 2×10⁶ cells/ml, added at 100 μl/well to a 96-well flow plate, and centrifuged for later use. The purified 4-1BB antibody was diluted with PBS by 3-fold dilution starting from 400 nM for a total of 12 points. The above-mentioned diluted sample was added at 100 μl/well to the above-mentioned 96-well flow plate with cells, incubated at 4° C. for 30 min, and washed twice with PBS. Goat F(ab′)2 anti-human IgG-Fc (PE) (purchased from Abcam) diluted 100 times with PBS was added at 100 μl/well, incubated at 4° C. for 30 min, and washed twice with PBS. The cells resuspended with PBS was added at 100 μl/well, and detected on CytoFlex (Bechman) flow cytometer, and the corresponding MFI was calculated.

| binding result | Binder |
| --- | --- |
| binds | B3 |
| binds | B4 |
| binds | B5 |

The binders below were run against T2, 4-1BB antigen (human, UniProt Q07011 24-186, limits assumed) (assay: BLI (ForteBio), antibody on AHQ sensor, 100 nM 4-1BB antigen, 1:1 model).
T2 construct: also called human 4-1BB antigen; human 4-1BB protein
T2 sequence (Q07011 24-186 limits assumed): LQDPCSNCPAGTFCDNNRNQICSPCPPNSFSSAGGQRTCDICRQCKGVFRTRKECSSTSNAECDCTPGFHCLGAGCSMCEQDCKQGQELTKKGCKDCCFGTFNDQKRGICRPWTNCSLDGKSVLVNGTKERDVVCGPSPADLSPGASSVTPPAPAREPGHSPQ
Method: ForteBio affinity determination was performed according to the existing method (Estep, P et al., Solution-based measurement of high-throughput antibody-antigen affinity and epitope classification, MAbs, 2013.5(2):p. 270-8). Briefly, the sensor was equilibrated offline for 30 min in the assay buffer, then the baseline was established by detection online for 60 s, and the purified antibody obtained as described above was loaded onto the AHQ sensor online. Then, the sensor was put into 100 nM 4-1BB antigen to act for 5 minutes, and the sensor was transferred to PBS and dissociated for 5 minutes. Analysis of kinetics was performed using a 1:1 binding model.

| Kd | Binder |
| --- | --- |
| 20.6 nM | B6 |
| 19.1 nM | B7 |
| 33.5 nM | B8 |
| 23.4 nM | B9 |
| 19.5 nM | B10 |
